{
  "source": "patent US20260274933A1",
  "about": "(Innovent, published 2026)",
  "binders": {"B1": {"name": "LA24C11 (Ang2 VHH) (VHH)", "VHH": "QVQLVESGGGLVQPGGSLRLSCAASGFALDYYAIGWFRQAPGKEREGVSCISSGDGSTYYADSVKGRFTISRDNAKNTVYLQMNSLKPEDTAVYYCATDSRGDDVACEGLRRNEYDYWGQGTQVTVSS", "notes": "Alpaca anti-Ang2 VHH"}, "B2": {"name": "BI-anti-VEGF (VHH)", "VHH": "DVQLVESGGGLVQPGGSLRLSCAASGRTFSSYSMGWFRQAPGKEREFVVAISKGGYKYDAVSLEGRFTISRDNAKNTVYLQINSLRPEDTAVYYCASSRAYGSSRLRLADTYEYWGQGTLVTVSS", "notes": "also called Positive control antibody BI-anti-VEGF"}, "B3": {"name": "LA46E11 (VEGFA VHH) (VHH)", "VHH": "QVQLEESGGGLVQPGGSLRLSCVASGSIFSINAMGWHRQAPGSQRELVATMIGGSSTFYADSVNGRFTISRDNAKNTVYLQMNSLKLEDTAVYYCYADVTGRSGTSIWNKRDDYWGQGTLVTVSS", "notes": "Alpaca anti-VEGF A VHH; also called LA46E11 supernatant"}, "B4": {"name": "LA46E11.8 (VEGFA VHH) (VHH)", "VHH": "B3 VHH with Q1E, E5L, V23A, S43K, D61E, N64Q, A74S, K86R, L87A, L120Q", "notes": "Humanized anti-VEGF A VHH; also called humanized LA46E11"}, "B5": {"name": "LA42F8.5 (VHH)", "VHH": "EVQLLESGGGLVQPGGSLRLSCAASGFNLDYYPIGWFRQAPGKGLEGVSCISSVGSTNYADSVKGRFTISRDNSKNTVYLQMNSLRAEDTAVYYCAADPLCSALILPPPFLSWGQGTQVTVSS", "notes": "also called humanized LA42F8"}},
  "key": {"[1]": {"biological_target": "T1, human Ang2 (human, UniProt O15123 19-496, limits assumed)", "T1 construct": "Antigen of the ForteBio assay; also called human Ang2 (Beijing Sino Biological)", "T1 sequence (looked up)": "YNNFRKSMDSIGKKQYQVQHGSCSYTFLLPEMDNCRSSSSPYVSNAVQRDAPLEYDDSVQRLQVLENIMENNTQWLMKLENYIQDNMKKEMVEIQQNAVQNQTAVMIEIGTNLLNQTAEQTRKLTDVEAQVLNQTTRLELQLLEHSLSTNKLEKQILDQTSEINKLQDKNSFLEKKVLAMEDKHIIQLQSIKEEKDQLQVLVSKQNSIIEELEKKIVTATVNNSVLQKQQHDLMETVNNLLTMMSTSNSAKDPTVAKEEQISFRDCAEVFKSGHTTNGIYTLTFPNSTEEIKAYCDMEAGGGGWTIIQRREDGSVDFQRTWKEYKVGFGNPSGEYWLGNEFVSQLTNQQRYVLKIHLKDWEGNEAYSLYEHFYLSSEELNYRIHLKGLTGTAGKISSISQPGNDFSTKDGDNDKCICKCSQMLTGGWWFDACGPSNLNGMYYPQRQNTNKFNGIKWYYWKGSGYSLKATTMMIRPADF", "experiment": "BLI (ForteBio), bivalent binding"}, "[2]": {"biological_target": "T1, human Ang2", "experiment": "BLI (ForteBio), bivalent binding; * dissociation constant exceeding ForteBio detection limits"}, "[3]": {"biological_target": "T1, human Ang2", "experiment": "BLI (ForteBio), monovalent binding"}, "[4]": {"biological_target": "T2, biotin-labeled VEGF A165 (ACRO, Catalog No. VE5-H8210) (human, UniProt P15692-4 27-191, biotin-labeled)", "T2 construct": "also called hVEGF A", "T2 sequence (P15692 other isoform, or with tags, fused parts or gaps limits assumed)": "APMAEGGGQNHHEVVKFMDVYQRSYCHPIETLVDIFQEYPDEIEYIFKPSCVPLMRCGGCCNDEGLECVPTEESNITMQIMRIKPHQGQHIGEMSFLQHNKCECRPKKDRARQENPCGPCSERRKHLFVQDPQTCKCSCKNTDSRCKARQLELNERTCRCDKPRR", "experiment": "blocking ELISA: biotin VEGF A165 captured on streptavidin, binding of VEGFR-Fc blocked; value printed as EC50 in the table under the curves, unit from the axis", "procedure": "SA (Thermo, Catalog No. 21125) was diluted to 1 μg/mL, and 100 μL/well of SA was plated in a microplate at 4° C. overnight. The plate was washed 3 times with PBST and blocked with 3% BSA for 1.5 h. […] The plate was washed 6 times with PBST, the color development was performed with TMB for 5 min, and OD450 nm was read after stopping."}, "[5]": {"biological_target": "T3, human VEGF165 (R&D) (human, UniProt P15692-4 27-191)", "T3 construct": "Antigen of the ForteBio assay", "T3 sequence (P15692 other isoform, or with tags, fused parts or gaps limits assumed)": "as above", "experiment": "BLI (ForteBio), bivalent binding"}, "[6]": {"biological_target": "T3, human VEGF165 (R&D)", "experiment": "BLI (ForteBio), monovalent binding"}},
  "note": "Where a chain is given by its changes, count along the chain named.",
  "data": [
    {"binder": "B1", "values": [
      {"measurement": "Kd", "setting": "[1]", "result": 0.867, "unit": "nM"},
      {"measurement": "kon", "setting": "[1]", "result": 231000, "unit": "M⁻¹ s⁻¹"},
      {"measurement": "koff", "setting": "[2]", "result": "≤ 0.0002", "unit": "s⁻¹"},
      {"measurement": "Kd", "setting": "[3]", "result": 2.18, "unit": "nM"},
      {"measurement": "koff", "setting": "[3]", "result": 0.00166, "unit": "s⁻¹"},
      {"measurement": "kon", "setting": "[3]", "result": 761000, "unit": "M⁻¹ s⁻¹"}
    ]},
    {"binder": "B2", "values": [
      {"measurement": "EC50", "setting": "[4]", "result": 0.034, "unit": "µg/mL"}
    ]},
    {"binder": "B3", "values": [
      {"measurement": "Kd", "setting": "[5]", "result": 1.11, "unit": "nM"},
      {"measurement": "koff", "setting": "[5]", "result": 0.0002, "unit": "s⁻¹"},
      {"measurement": "kon", "setting": "[5]", "result": 179000, "unit": "M⁻¹ s⁻¹"},
      {"measurement": "Kd", "setting": "[6]", "result": 7.74, "unit": "nM"},
      {"measurement": "koff", "setting": "[6]", "result": 0.00142, "unit": "s⁻¹"},
      {"measurement": "kon", "setting": "[6]", "result": 184000, "unit": "M⁻¹ s⁻¹"},
      {"measurement": "EC50", "setting": "[4]", "result": 0.344, "unit": "µg/mL"}
    ]},
    {"binder": "B4", "values": [
      {"measurement": "Kd", "setting": "[5]", "result": 0.788, "unit": "nM"},
      {"measurement": "koff", "setting": "[5]", "result": 0.000332, "unit": "s⁻¹"},
      {"measurement": "kon", "setting": "[5]", "result": 421000, "unit": "M⁻¹ s⁻¹"}
    ]},
    {"binder": "B5", "values": [
      {"measurement": "Kd", "setting": "[5]", "result": 0.2, "unit": "nM"},
      {"measurement": "koff", "setting": "[5]", "result": 0.000213, "unit": "s⁻¹"},
      {"measurement": "kon", "setting": "[5]", "result": "1.06e+06", "unit": "M⁻¹ s⁻¹"}
    ]}
  ]
}
